From the supplement of paper PMC11246515
± gives the standard deviation of the averaged measurements.

Test: total protein half-life in vivo (active degradation + dilution); higher = more stable protein
[1] = E. coli NCM3722 delta-clpP delta-lon delta-hslV, growth: N-lim chemostat, doubling time 6 h
[2] = E. coli NCM3722 delta-clpP, growth: N-lim chemostat, doubling time 6 h
[3] = E. coli NCM3722 delta-hslV, growth: N-lim chemostat, doubling time 6 h
[4] = E. coli NCM3722 delta-lon, growth: N-lim chemostat, doubling time 6 h
[5] = E. coli NCM3722 delta-smpB, growth: N-lim chemostat, doubling time 6 h
[6] = wild type E. coli NCM3722, growth: C-lim chemostat, doubling time 3 h
[7] = wild type E. coli NCM3722, growth: C-lim chemostat, doubling time 6 h
[8] = wild type E. coli NCM3722, growth: C-lim chemostat, doubling time 12 h
[9] = wild type E. coli NCM3722, growth: N-lim chemostat, doubling time 6 h
[10] = wild type E. coli NCM3722, growth: N-lim chemostat, doubling time 12 h
[11] = wild type E. coli NCM3722, growth: P-lim chemostat, doubling time 6 h
[12] = wild type E. coli NCM3722, growth: P-lim chemostat, doubling time 12 h

| Sequence | total protein half-life in vivo [1] [h] | total protein half-life in vivo [2] [h] | total protein half-life in vivo [3] [h] | total protein half-life in vivo [4] [h] | total protein half-life in vivo [5] [h] | total protein half-life in vivo [6] [h] | total protein half-life in vivo [7] [h] | total protein half-life in vivo [8] [h] | total protein half-life in vivo [9] [h] | total protein half-life in vivo [10] [h] | total protein half-life in vivo [11] [h] | total protein half-life in vivo [12] [h] |
| --- | --- | --- | --- | --- | --- | --- | --- | --- | --- | --- | --- | --- |
| MHWQTHTVFNQPIPLNNSNLYLSDGALCEAVTREGAGWDSDFLASIGQQLGTAESLELGRLANVNPPELLRYDAQGRRLDDVRFHPAWHLLMQALCTNRVHNLAWEEDARSGAFVARAARFMLHAQVEAGSLCPITMTFAATPLLLQMLPAPFQDWTTPLLSDRYDSHLLPGGQKRGLLIGMGMTEKQGGSDVMSNTTRAERLEDGSYRLVGHKWFFSVPQSDAHLVLAQTAGGLSCFFVPRFLPDGQRNAIRLERLKDKLGNRSNASCEVEFQDAIGWLLGLEGEGIRLILKMGGMTRFDCALGSHAMMRRAFSLAIYHAHQRHVFGNPLIQQPLMRHVLSRMALQLEGQTALLFRLARAWDRRADAKEALWARLFTPAAKFVICKRGMPFVAEAMEVLGGIGYCEESELPRLYREMPVNSIWEGSGNIMCLDVLRVLNKQAGVYDLLSEAFVEVKGQDRYFDRAVRRLQQQLRKPAEELGREITHQLFLLGCGAQMLKYASPPMAQAWCQVMLDTRGGVRLSEQIQNDLLLRATGGVCV | 4.81 ± 0.12 | 4.91 ± 0.18 | 5.583 ± 0.035 | 4.72 ± 0.15 | 5.28 ± 0.11 | 3.296 ± 0.026 | 5.91 ± 0.25 | 11.3 ± 0.59 | 5.18 ± 0.13 | 11.5 ± 0.84 | 6.51 ± 0.25 | 11.5 ± 0.058 |
| MYLRPDEVARVLEKVGFTVDVVTQKAYGYRRGENYVYVNREARMGRTALVIHPTLKERSSTLAEPASDIKTCDHYQQFPLYLAGERHEHYGIPHGFSSRVALERYLNGLFGEAS [P0AD53] | 4.77 ± 0.34 | 1.5 | 0.818 | 2.99 ± 0.41 | 0.698 ± 0.21 | 1.18 ± 0.14 | 1.81 ± 0.54 | 1.42 | 0.609 ± 0.47 | 1.14 | 1.03 ± 0.22 | 2.61 |
| MFPPMWRRLIYHPDINYALRQTLVLCLPVAVGLMLGELRFGLLFSLVPACCNIAGLDTPHKRFFKRLIIGASLFATCSLLTQLLLAKDVPLPFLLTGLTLVLGVTAELGPLHAKLLPASLLAAIFTLSLAGYMPVWEPLLIYALGTLWYGLFNWFWFWIWREQPLRESLSLLYRELADYCEAKYSLLTQHTDPEKALPPLLVRQQKAVDLITQCYQQMHMLSAQNNTDYKRMLRIFQEALDLQEHISVSLHQPEEVQKLVERSHAEEVIRWNAQTVAARLRVLADDILYHRLPTRFTMEKQIGALEKIARQHPDNPVGQFCYWHFSRIARVLRTQKPLYARDLLADKQRRMPLLPALKSYLSLKSPALRNAGRLSVMLSVASLMGTALHLPKSYWILMTVLLVTQNGYGATRLRIVNRSVGTVVGLIIAGVALHFKIPEGYTLTLMLITTLASYLILRKNYGWATVGFTITAVYTLQLLWLNGEQYILPRLIDTIIGCLIAFGGTVWLWPQWQSGLLRKNAHDALEAYQEAIRLILSEDPQPTPLAWQRMRVNQAHNTLYNSLNQAMQEPAFNSHYLADMKLWVTHSQFIVEHINAMTTLAREHRALPPELAQEYLQSCEIAIQRCQQRLEYDEPGSSGDANIMDAPEMQPHEGAAGTLEQHLQRVIGHLNTMHTISSMAWRQRPHHGIWLSRKLRDSKA | 6.2 ± 0.17 | 6.9 | 4.97 ± 0.47 | 5.47 ± 0.38 | 5.02 ± 0.33 | > 4 | 5.87 | 13.4 ± 0.3 | 6.05 ± 0.55 |  | 6.24 ± 0.091 | 12.2 ± 0.44 |
| MAGKTMIPLLAFAAWSGTGKTTLLKKLIPALCARGIRPGLIKHTHHDMDVDKPGKDSYELRKAGAAQTIVASQQRWALMTETPDEEELDLQFLASRMDTSKLDLILVEGFKHEEIAKIVLFRDGAGHRPEELVIDRHVIAVASDVPLNLDVALLDINDVEGLADFVVEWMQKQNG | 4.44 ± 0.4 | 4.61 | 4.37 ± 0.056 | 4.48 ± 0.64 | 3.88 ± 0.7 | 3.22 ± 0.15 | 5.23 ± 0.18 | 9.51 | 4.01 ± 0.23 | 5.54 ± 1.1 | 5.85 | 11 ± 0.32 |
| MKDVVIVGALRTPIGCFRGALAGHSAVELGSLVVKALIERTGVPAYAVDEVILGQVLTAGAGQNPARQSAIKGGLPNSVSAITINDVCGSGLKALHLATQAIQCGEADIVIAGGQENMSRAPHVLTDSRTGAQLGNSQLVDSLVHDGLWDAFNDYHIGVTAENLAREYGISRQLQDAYALSSQQKARAAIDAGRFKDEIVPVMTQSNGQTLVVDTDEQPRTDASAEGLARLNPSFDSLGSVTAGNASSINDGAAAVMMMSEAKARALNLPVLARIRAFASVGVDPALMGIAPVYATRRCLERVGWQLAEVDLIEANEAFAAQALSVGKMLEWDERRVNVNGGAIALGHPIGASGCRILVSLVHEMVKRNARKGLATLCIGGGQGVALTIERDE | 5.29 ± 0.14 |  |  |  |  | 1.35 ± 0.2 | 2.66 ± 0.38 | 3.57 ± 0.4 |  |  | 0.858 | 2 ± 0.37 |
| MFNGRPFPVDAFPKIIRNAIYEVEQHTQAPQGLIAASALGVISLACQNRIDVCRLNNLRGPVSLFLMTLAESGERKSTVDKLLMKPLYQLEEDLFEKYTHDLTAWRNDEAIFNIEKKALMSKLKSDIRRNKDHLATNERLKELLTTNPKAPVRFKFLFNDATPAAIKAHLCGHWRSVGIMSDEAGIIFNGYTLNELPFINKMWDGSIFTVERKNEPEKLIRDARITLSLMVQPNVFKGYIDRKGDMAKGIGFFARCLMCQPASTQGNRKISNPIFSNEHLPVFHQRLMEIVNESIIKINENNRICLRFSAEAERHWIEFYNQVESEMRMIGLLYDFKDYASKMAENMARLAALLHYFSGDGGDISVTAVKAAVEIVAWYIEEYIRLFSKKEEFSLDVSEADELYCWIKDYCTQKFSSCIKKNIILQFGPNKFRNRDKANELIRILISQNKIFISSWGKTKIINITHCVF | 4.5 |  |  |  |  |  |  |  |  |  |  |  |
| MKSLRLMLCAMPLMLTGCSTMSSVNWSAANPWNWFGSSTKVSEQGVGELTASTPLQEQAIADALDGDYRLRSGMKTANGNVVRFFEVMKGDNVAMVINGDQGTISRIDVLDSDIPADTGVKIGTPFSDLYSKAFGNCQKADGDDNRAVECKAEGSQHISYQFSGEWRGPEGLMPSDDTLKNWKVSKIIWRR | 5.96 ± 0.15 | 6.484 ± 0.023 | 7.579 ± 0.065 |  | 6.4 ± 0.55 | 3.24 ± 0.74 | 6.151 ± 0.0073 | 14.8 ± 0.17 | 6.63 ± 0.47 |  | 6.68 ± 0.71 |  |
